The results in this text go back to paper PMC10570040.

By Kd is commonly meant the concentration at which binding is half-saturated.

The target of one data set is T1, EnfR T55I (Thermococcus onnurineus NA1, UniProt B6YTS4 1-146, T55I).
T1 sequence: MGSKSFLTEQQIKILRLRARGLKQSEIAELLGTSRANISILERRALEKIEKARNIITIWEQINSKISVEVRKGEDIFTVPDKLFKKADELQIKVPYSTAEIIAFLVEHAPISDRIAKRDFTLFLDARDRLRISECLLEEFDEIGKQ
As to the kind of experiment: ITC; 25 C; N = 0.80; EMSA: 10 mM Tris pH 7.4, 200 mM KCl, 2 mM DTT, 0.2 mM EDTA, 37 C 20 min; ITC: 10 mM Tris-HCl pH 7.4, 200 mM KCl, 1 mM TCEP, 0.2 mM EDTA, 25 C; footprint: 20 mM. Conditions: protein: recombinant; tags: C-terminal His6, non-cleavable; chain copies: 2; blunt.

In data set [1] the target is T2, EnfR wild-type (TON_1525) (Thermococcus onnurineus NA1, UniProt B6YTS4 1-146).
T2 sequence: T1 sequence with I55T
As to the kind of experiment: ITC; 25 C; N = 0.94; EMSA: 10 mM Tris pH 7.4, 200 mM KCl, 2 mM DTT, 0.2 mM EDTA, 37 C 20 min; ITC: 10 mM Tris-HCl pH 7.4, 200 mM KCl, 1 mM TCEP, 0.2 mM EDTA, 25 C; footprint: 20 mM. Conditions: protein: recombinant; tags: C-terminal His6, non-cleavable; chain copies: 2; blunt.

The next data set has as its target T3, EnfR R44A (Thermococcus onnurineus NA1, UniProt B6YTS4 1-146, R44A).
T3 sequence: T1 sequence with R44A, I55T
As to the kind of experiment: EMSA; seemed to lose binding; EMSA: 10 mM Tris pH 7.4, 200 mM KCl, 2 mM DTT, 0.2 mM EDTA, 37 C 20 min; ITC: 10 mM Tris-HCl pH 7.4, 200 mM KCl, 1 mM TCEP, 0.2 mM EDTA, 25 C; footprint: 20 mM. Conditions: protein: recombinant; tags: C-terminal His6, non-cleavable; chain copies: 2; label: 5'-Cy5; blunt.

Where a chain is given by its changes, count along the chain named.

B1: 36-bp target, unlabelled (ITC) (dsDNA)
DNA 1: CCATCTTAAAATCTTTTTGTTTACATTATACGAGGT
DNA 2: ACCTCGTATAATGTAAACAAAAAGATTTTAAGATGG
Regarding B1, the equilibrium dissociation constant (Kd) with EnfR T55I is 948 ± 130 nM; in data set [1], 61.8 ± 20.5 nM.

B2: 36-bp target, Cy5 (dsDNA)
DNA 1: B1 DNA 1
DNA 2: B1 DNA 2
B2: in the data set with EnfR R44A, the binding result was “no binding”.
